Residue numbers refer to the chain shown, from its start.
Experiments:
Experiment in all cases: EMSA
Conditions in all cases: tags: MBP fusion
ZFP SBS#358 = ZFP SBS#358 (synthetic)
Experimental: (§1) Affinity is measured by titrating purified protein against a fixed amount of labeled double-stranded oligonucleotide target. The target typically comprises the natural binding site sequence flanked by the 3 bp found in the natural sequence and additional, constant flanking sequences. The natural binding site is typically 9 bp for a three-finger protein and 2×9 bp +intervening bases for a six finger ZFP. […] For the assay the target is added at a concentration of 1 nM or lower (the actual concentration is kept at least 10-fold lower than the expected dissociation constant), purified ZFPs are added at various concentrations, and the reaction is allowed to equilibrate for at least 45 min. In addition the reaction mixture also contains 10 mM Tris (pH 7.5), 100 mM KCl, 1 mM MgCl2, 0.1 mM ZnCl2, 5 mM DTT, 10% glycerol, 0.02% BSA. (NB: in earlier assays poly d(IC) was also added at […].) The equilibrated reactions are loaded onto a 10% polyacrylamide gel, which has been pre-run for 45 min in Tris/glycine buffer, then bound and unbound labeled target is resolved by electrophoresis at 150V.

ZFP SBS#384 = target: T1, ZFP SBS#384 (synthetic)
T1 chain: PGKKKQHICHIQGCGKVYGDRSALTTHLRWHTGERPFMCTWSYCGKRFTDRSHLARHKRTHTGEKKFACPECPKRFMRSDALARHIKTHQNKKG
Experimental: as §1

ZFP SBS#314 = ZFP SBS#314 (synthetic)
Experimental: as §1

ZFP SBS#312 = target: T2, ZFP SBS#312 (synthetic)
T2 chain: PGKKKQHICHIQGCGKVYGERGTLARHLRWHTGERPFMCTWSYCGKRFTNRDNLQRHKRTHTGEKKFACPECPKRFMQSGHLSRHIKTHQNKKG
Experimental: as §1

ZFP SBS#311 = target: T3, ZFP SBS#311 (synthetic)
T3 chain: T2 chain with E20D, G22S, A25T
Experimental: as §1

ZFP SBS#309 = ZFP SBS#309 (synthetic)
Experimental: as §1

ZFP SBS#315 = ZFP SBS#315 (synthetic)
Experimental: as §1

ZFP SBS#316 = target: T4, ZFP SBS#316 (synthetic)
T4 chain: T2 chain with N50Q
Experimental: as §1

ZFP SBS#361 = ZFP SBS#361 (synthetic)
Experimental: as §1

ZFP SBS#363 = ZFP SBS#363 (synthetic)
Experimental: as §1

ZFP SBS#350 = target: T5, ZFP SBS#350 (synthetic)
T5 chain: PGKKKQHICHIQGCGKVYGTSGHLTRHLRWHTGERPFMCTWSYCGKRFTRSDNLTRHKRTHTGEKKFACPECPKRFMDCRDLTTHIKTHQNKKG
Experimental: as §1

ZFP SBS#377 = target: T6, ZFP SBS#377 (synthetic)
T6 chain: T5 chain with T20Q, H23S, S51G, N53A, R56S, D78R, C79S, R80D, D81A, T84R
Experimental: as §1

ZFP SBS#302 = ZFP SBS#302 (synthetic)
Experimental: as §1

ZFP SBS#299 = ZFP SBS#299 (synthetic)
Experimental: as §1

ZFP SBS#298 = target: T7, ZFP SBS#298 (synthetic)
T7 chain: T2 chain with E20Q, R21T, T23E, A25R, N50R, R51S, R56K, Q78T, H81D
Experimental: as §1

ZFP SBS#303 = ZFP SBS#303 (synthetic)
Experimental: as §1

ZFP SBS#300 = target: T8, ZFP SBS#300 (synthetic, UniProt P08047)
T8 chain: T2 chain with E20Q, R21T, G22A, T23D, A25R, N50R, R51S, G80S, H81D
Experimental: as §1

ZFP SBS#305 = ZFP SBS#305 (synthetic)
Experimental: as §1

ZFP SBS#304 = target: T9, ZFP SBS#304 (synthetic)
T9 chain: T2 chain with E20Q, R21T, G22A, T23D, A25T, N50R, R51S, R56T, G80S, H81D
Experimental: as §1

ZFP SBS#306 = target: T10, ZFP SBS#306 (synthetic)
T10 chain: T2 chain with E20Q, R21T, G22A, T23S, A25T, N50R, R51S, R56T, G80S, H81D
Experimental: as §1

ZFP SBS#301 = target: T11, ZFP SBS#301 (synthetic)
T11 chain: T2 chain with E20Q, R21S, G22A, T23D, A25R, N50R, R51S, R56T, G80S, H81D
Experimental: as §1

ZFP SBS#352 = ZFP SBS#352 (synthetic)
Experimental: as §1

ZFP SBS#318 = target: T12, ZFP SBS#318 (synthetic)
T12 chain: T1 chain with D20R, R21S, S22D, T26S, D50R, R51S, S52D, H53N, A81N, R84S
Experimental: as §1

ZFP SBS#251 = ZFP SBS#251 (synthetic)
Experimental: as §1

ZFP SBS#367 = ZFP SBS#367 (synthetic)
Experimental: as §1

ZFP SBS#323 = ZFP SBS#323 (synthetic)
Experimental: as §1

ZFP SBS#324 = ZFP SBS#324 (synthetic)
Experimental: as §1

ZFP SBS#321 = ZFP SBS#321 (synthetic)
Experimental: as §1

ZFP SBS#355 = target: T13, ZFP SBS#355 (synthetic)
T13 chain: T5 chain with T20E, S21K, G22A, H23N, D78Q, C79R, R80S, D81N, T83V, T84R
Experimental: as §1

ZFP SBS#354 = ZFP SBS#354 (synthetic)
Experimental: as §1

ZFP SBS#319 = ZFP SBS#319 (synthetic, UniProt P08047)
Experimental: as §1

ZFP SBS#320 = ZFP SBS#320 (synthetic)
Experimental: as §1

ZFP SBS#365 = ZFP SBS#365 (synthetic)
Experimental: as §1

ZFP SBS#381 = target: T14, ZFP SBS#381 (synthetic)
T14 chain: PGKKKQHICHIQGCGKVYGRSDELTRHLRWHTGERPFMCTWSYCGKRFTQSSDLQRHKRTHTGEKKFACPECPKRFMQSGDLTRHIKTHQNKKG
Experimental: as §1

ZFP SBS#307 = target: T15, ZFP SBS#307 (synthetic)
T15 chain: T14 chain with T25R, S52G, D53N, D81N, T83S
Experimental: as §1

ZFP SBS#375 = target: T16, ZFP SBS#375 (synthetic)
T16 chain: T14 chain with R20Q, S21Q, D22S, E23N, T25A, S52G, D53N, Q78R, G80D, D81N
Experimental: as §1

ZFP SBS#297 = target: T17, ZFP SBS#297 (synthetic)
T17 chain: T2 chain with N50R, R51S, N53E, Q55R, Q78D, S79R, G80S, S83Q, R84T
Experimental: as §1

ZFP SBS#358 (synthetic), sequence (chain, as listed by the source): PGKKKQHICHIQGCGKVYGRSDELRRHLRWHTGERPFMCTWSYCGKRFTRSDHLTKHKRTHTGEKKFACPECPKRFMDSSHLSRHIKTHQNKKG
ZFP SBS#319, sequence (P08047 other isoform, or with tags, fused parts or gaps): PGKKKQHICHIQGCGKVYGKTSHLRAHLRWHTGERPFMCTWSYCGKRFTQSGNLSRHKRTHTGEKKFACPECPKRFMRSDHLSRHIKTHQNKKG
ZFP SBS#320 (synthetic), sequence (chain, as listed by the source): as the sequence (P08047 other isoform, or with tags, fused parts or gaps) above, with K20R, T21S, S22D, R25T, A26R counted along it
ZFP SBS#314 (synthetic), sequence (chain, as listed by the source): as the sequence (P08047 other isoform, or with tags, fused parts or gaps) above, with K20D, T21R, H23S, R25T, A26R, G52S, S55Q, R78Q, D80G counted along it
ZFP SBS#302 (synthetic), sequence (chain, as listed by the source): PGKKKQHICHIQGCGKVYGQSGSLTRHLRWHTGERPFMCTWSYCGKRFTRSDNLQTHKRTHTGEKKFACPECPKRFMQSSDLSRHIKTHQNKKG
ZFP SBS#303 (synthetic), sequence (chain, as listed by the source): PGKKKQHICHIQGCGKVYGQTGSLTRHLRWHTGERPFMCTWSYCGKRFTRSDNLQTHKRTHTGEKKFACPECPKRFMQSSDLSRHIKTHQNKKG
ZFP SBS#305 (synthetic), sequence (chain, as listed by the source): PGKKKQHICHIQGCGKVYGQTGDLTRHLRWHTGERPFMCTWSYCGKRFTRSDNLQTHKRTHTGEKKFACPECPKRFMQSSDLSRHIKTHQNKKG
ZFP SBS#299 (synthetic), sequence (chain, as listed by the source): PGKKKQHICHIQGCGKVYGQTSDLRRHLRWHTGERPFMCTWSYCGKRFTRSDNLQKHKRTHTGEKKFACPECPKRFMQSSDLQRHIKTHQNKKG
ZFP SBS#361 (synthetic), sequence (chain, as listed by the source): as the sequence (P08047 other isoform, or with tags, fused parts or gaps) above, with K20R, T21S, S22D, R25T, A26R, G52S, N53A, S55T, S83T counted along it
ZFP SBS#354 (synthetic), sequence (chain, as listed by the source): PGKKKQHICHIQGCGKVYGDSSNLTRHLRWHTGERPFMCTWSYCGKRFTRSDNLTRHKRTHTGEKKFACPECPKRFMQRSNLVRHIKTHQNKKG
ZFP SBS#324 (synthetic), sequence (chain, as listed by the source): as the sequence (P08047 other isoform, or with tags, fused parts or gaps) above, with K20T, H23N, A26R, N53H, S55Q, R78D, S79R, S83T counted along it
ZFP SBS#323 (synthetic), sequence (chain, as listed by the source): as the sequence (P08047 other isoform, or with tags, fused parts or gaps) above, with K20T, H23N, A26R, N53H, S55Q, R78D, S79R, S83T counted along it
ZFP SBS#365 (synthetic), sequence (chain, as listed by the source): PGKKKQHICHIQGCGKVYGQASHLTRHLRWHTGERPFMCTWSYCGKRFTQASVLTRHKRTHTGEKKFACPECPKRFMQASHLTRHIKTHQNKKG
ZFP SBS#352 (synthetic), sequence (chain, as listed by the source): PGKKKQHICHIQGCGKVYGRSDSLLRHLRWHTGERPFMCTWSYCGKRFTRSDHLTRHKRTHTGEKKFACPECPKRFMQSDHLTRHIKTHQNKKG
ZFP SBS#309 (synthetic), sequence (chain, as listed by the source): as the sequence (P08047 other isoform, or with tags, fused parts or gaps) above, with K20E, T21R, H23D, A26R, G52S, S55Q, R78Q, D80G counted along it
ZFP SBS#321 (synthetic), sequence (chain, as listed by the source): as the sequence (P08047 other isoform, or with tags, fused parts or gaps) above, with K20T, H23N, A26R, N53H, S55Q, R78D, S79R, D80S, S83T counted along it

B1: GGCTGGGCG (dsDNA)
DNA 1: GGCTGGGCG
DNA 2: CGCCCAGCC
For B1, the Kd (ZFP SBS#358) was 225 nM.

B2: GTGGGCTTCA (dsDNA)
DNA 1: GTGGGCTTCA
DNA 2: TGAAGCCCAC
B2 was tested, and the Kd (ZFP SBS#384) was 60 nM.

B3: GGAGATGCC (dsDNA)
DNA 1: GGAGATGCC
DNA 2: GGCATCTCC
Work on B3 yielded a Kd (ZFP SBS#314) of 118 nM, a Kd (ZFP SBS#312) of 2000 nM and a Kd (ZFP SBS#311) of 170 nM. For the same binder, the Kd (ZFP SBS#309) was 4000 nM, the Kd (ZFP SBS#315) was 265 nM and the Kd (ZFP SBS#316) was 3000 nM.

B4: GGGTTTGGG (dsDNA)
DNA 1: GGGTTTGGG
DNA 2: CCCAAACCC
B4 was tested, and the Kd (ZFP SBS#361) was 130 nM and the Kd (ZFP SBS#363) was 200 nM.

B5: TCCGAGGGT (dsDNA)
DNA 1: TCCGAGGGT
DNA 2: ACCCTCGGA
B5 was tested, and the Kd (ZFP SBS#350) was 332 nM.

B6: GTGTTGGCAG (dsDNA)
DNA 1: GTGTTGGCAG
DNA 2: CTGCCAACAC
For B6, the Kd (ZFP SBS#377) was 89 nM.

B7: GCTTAGGCA (dsDNA)
DNA 1: GCTTAGGCA
DNA 2: TGCCTAAGC
With B7 the Kd (ZFP SBS#302) was 75 nM, the Kd (ZFP SBS#299) was 4000 nM and the Kd (ZFP SBS#298) was 4000 nM. The Kd (ZFP SBS#303) was 135 nM, the Kd (ZFP SBS#300) was 400 nM and the Kd (ZFP SBS#305) was 230 nM. It also gave a Kd (ZFP SBS#304) of 230 nM, a Kd (ZFP SBS#306) of 280 nM and a Kd (ZFP SBS#301) of 350 nM.

B8: GGAGGGGTG (dsDNA)
DNA 1: GGAGGGGTG
DNA 2: CACCCCTCC
B8 gave a Kd (ZFP SBS#352) of 26 nM.

B9: TAGGAGATGC (dsDNA)
DNA 1: TAGGAGATGC
DNA 2: GCATCTCCTA
B9 gave a Kd (ZFP SBS#318) of 100 nM.

B10: GCGGAGGCG (dsDNA)
DNA 1: GCGGAGGCG
DNA 2: CGCCTCCGC
B10 was tested, and the Kd (ZFP SBS#251) was 27.5 nM.

B11: GGGGGCGGG (dsDNA)
DNA 1: GGGGGCGGG
DNA 2: CCCGCCCCC
In the case of B11, the Kd (ZFP SBS#367) is reported as 60 nM.

B12: GGCGGAGAT (dsDNA)
DNA 1: GGCGGAGAT
DNA 2: ATCTCCGCC
Work on B12 yielded a Kd (ZFP SBS#323) of 600 nM, a Kd (ZFP SBS#324) of 200 nM and a Kd (ZFP SBS#321) of 200 nM.

B13: GAAGAGGAC (dsDNA)
DNA 1: GAAGAGGAC
DNA 2: GTCCTCTTC
B13 was tested, and the Kd (ZFP SBS#355) was 20 nM and the Kd (ZFP SBS#354) was 28 nM.

B14: GGGGAAGGG (dsDNA)
DNA 1: GGGGAAGGG
DNA 2: CCCTTCCCC
B14 showed a Kd (ZFP SBS#319) of 125 nM and a Kd (ZFP SBS#320) of 5 nM.

B15: GGTGCTGGT (dsDNA)
DNA 1: GGTGCTGGT
DNA 2: ACCAGCACC
B15 was tested, and the Kd (ZFP SBS#365) was 600 nM.

B16: GCAGCTGCGC (dsDNA)
DNA 1: GCAGCTGCGC
DNA 2: GCGCAGCTGC
Work on B16 yielded a Kd (ZFP SBS#381) of 1.5 nM.

B17: GAAGAAGCG (dsDNA)
DNA 1: GAAGAAGCG
DNA 2: CGCTTCTTC
B17 was tested, and the Kd (ZFP SBS#307) was 50.5 nM.

B18: GAGGAAGAT (dsDNA)
DNA 1: GAGGAAGAT
DNA 2: ATCTTCCTC
With B18 the Kd (ZFP SBS#375) was 85 nM.

B19: TGCGCGGCC (dsDNA)
DNA 1: TGCGCGGCC
DNA 2: GGCCGCGCA
In the case of B19, the Kd (ZFP SBS#297) is reported as 500 nM.

— patent publication US20030068675, “Position dependent recognition of GNN nucleotide triplets by zinc fingers” (published 2003)
